Experimental data reported in CN111018977A (DONGGUAN PENGZHI BIOTECHNOLOGY CO LTD, dated 2020).
Residue numbers refer to the chain shown, from its start.

B1: WT 1-1 (antibody, V domains shown)
VH: QVQLQQSGTELAKPGASVKFSCKASDYTFSTYWMYWIKQRPGQGLEWIGYINPSTGHTEYNQKFKDKATLTADKSSSTAYMQLNSLTSEDSAVYYCARRYYGPFAMDYWGQGTSVTVSS
VL: EIFLTQSPAIMSASPGEKVTMTCSASSSVSYAHWYQQKSGTSPKRWIYDSSKIASGIPVRFSGSGSGTSYSLTISSMEAEDAATYYCQNWSTNPYTFGGGTKLEIKR
B2: WT 1-4 (antibody, V domains shown)
VH: B1 VH with T55S, K63R, R99K
VL: B1 VL with S27T, S28T, I47L
B3: WT 1-7 (antibody, V domains shown)
VH: B1 VH with S30T, I51L
VL: B1 VL with S27T, I53L

target: T1, CTNI质控品重组抗原 (人心肌肌钙蛋白I, cTnI) (human, UniProt P19429 1-210, limits assumed); assay: AMC sensor (biolayer interferometry), antibody immobilised at 10 ug/ml, cTnI QC recombinant protein in serial dilution in PBST
T1 construct: also called CTNI质控品重组蛋白
T1 sequence (P19429 whole entry): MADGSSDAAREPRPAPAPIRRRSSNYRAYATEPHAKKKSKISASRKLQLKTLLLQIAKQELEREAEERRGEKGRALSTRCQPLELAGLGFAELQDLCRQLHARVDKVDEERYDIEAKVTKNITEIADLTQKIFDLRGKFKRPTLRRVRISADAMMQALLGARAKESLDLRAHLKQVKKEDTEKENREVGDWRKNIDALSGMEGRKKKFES

Kd [nM]	koff [s⁻¹]	kon [M⁻¹ s⁻¹]	Binder
1.43	5.51e-05	38500	B1
1.04	3.9e-05	37500	B2
0.728	0.000132	182000	B3
